Target: Myc.His.CK1a
Experiment: c-Myc immunoprecipitation (CK1a IP)
Conditions: strains cultured in LL; n = 4; parent: est. 1.0; read off a plot

FREQUENCY (FRQ), wild type (from UniProt P19970) V320I
ratio to parent: 0.52

FREQUENCY (FRQ), wild type (from UniProt P19970) L488V
ratio to parent: 0.23

FREQUENCY (FRQ), wild type (from UniProt P19970) Q325N
ratio to parent: 0.97

FREQUENCY (FRQ), wild type (from UniProt P19970) Q494N
ratio to parent: 0.68

Reference: article PMC6761100
